Data as given in ChEMBL document CHEMBL1135258, “Substrate spectrum of tyrocidine thioesterase probed with randomized peptide N-acetylcysteamine thioesters” (Bioorg Med Chem Lett, 2002).
Where “and” joins values, the source holds several entries; their conditions need not be identical. Equal values may be shown once.

Columns and labels:
Settings in all cases: Brevibacillus brevis
[1] = substrate: CC(=O)NCCSC(=O)[C@H](CC(C)C)NC(=O)[C@H](CCCN)NC(=O)[C@@H](NC(=O)[C@H](Cc1ccc(O)cc1)NC(=O)[C@H](CCC(N)=O)NC(=O)[C@H](CC(C)C)NC(=O)[C@@H](Cc1ccccc1)NC(=O)[C@H](Cc1ccccc1)NC(=O)[C@@H]1CCCN1C(=O)[C@H](N)Cc1ccccc1)C(C)C; assay: (§1) Apparent kinetic constant (Km) determined for tyrocidine thioesterase amplified from Bacillus brevis (ATCC8185)
[2] = substrate: CC(=O)NCCSC(=O)[C@H](CC(C)C)NC(=O)[C@H](CCCN)NC(=O)[C@@H](NC(=O)[C@H](Cc1ccc(O)cc1)NC(=O)[C@H](CCC(N)=O)NC(=O)[C@H](CC(N)=O)NC(=O)[C@H](CC(C)C)NC(=O)[C@H](Cc1ccccc1)NC(=O)[C@@H]1CCCN1C(=O)[C@H](N)Cc1ccccc1)C(C)C; assay: as §1
[3] = substrate: CC(=O)NCCSC(=O)[C@H](CC(C)C)NC(=O)[C@H](CCCN)NC(=O)[C@@H](NC(=O)[C@H](Cc1ccc(O)cc1)NC(=O)[C@H](CCC(N)=O)NC(=O)[C@H](CC(N)=O)NC(=O)[C@@H](Cc1ccccc1)NC(=O)[C@H](Cc1ccccc1)NC(=O)[C@H](CC(N)=O)NC(=O)[C@H](N)Cc1ccccc1)C(C)C; assay: as §1
[4] = substrate: CC(=O)NCCSC(=O)[C@H](CC(C)C)NC(=O)[C@H](CCCN)NC(=O)[C@@H](NC(=O)[C@H](Cc1ccc(O)cc1)NC(=O)[C@H](CCC(N)=O)NC(=O)[C@H](CC(N)=O)NC(=O)[C@@H](Cc1ccccc1)NC(=O)[C@H](Cc1ccccc1)NC(=O)[C@@H]1CCCN1C(=O)[C@H](N)Cc1ccccc1)C(C)C; assay: as §1
[5] = substrate: CC(=O)NCCSC(=O)[C@H](CC(C)C)NC(=O)[C@H](CCCN)NC(=O)[C@@H](NC(=O)[C@H](Cc1ccc(O)cc1)NC(=O)[C@H](CCC(N)=O)NC(=O)[C@H](CC(N)=O)NC(=O)[C@@H](NC(=O)[C@H](Cc1ccccc1)NC(=O)[C@@H]1CCCN1C(=O)[C@H](N)Cc1ccccc1)C(C)C)C(C)C; assay: as §1
[6] = substrate: CC(=O)NCCSC(=O)[C@H](CC(C)C)NC(=O)[C@H](CCCN)NC(=O)[C@@H](NC(=O)[C@H](Cc1ccc(O)cc1)NC(=O)[C@H](CCC(N)=O)NC(=O)[C@H](CC(N)=O)NC(=O)[C@H](CC(=O)O)NC(=O)[C@H](Cc1ccccc1)NC(=O)[C@@H]1CCCN1C(=O)[C@H](N)Cc1ccccc1)C(C)C; assay: as §1
[7] = substrate: CC(=O)NCCSC(=O)[C@H](CC(C)C)NC(=O)[C@H](CCCN)NC(=O)[C@@H](NC(=O)[C@H](Cc1ccc(O)cc1)NC(=O)[C@H](CCC(N)=O)NC(=O)[C@H](CC(N)=O)NC(=O)[C@H](C)NC(=O)[C@H](Cc1ccccc1)NC(=O)[C@@H]1CCCN1C(=O)[C@H](N)Cc1ccccc1)C(C)C; assay: as §1
[8] = substrate: CC(=O)NCCSC(=O)[C@H](CC(C)C)NC(=O)[C@H](CCCN)NC(=O)[C@@H](NC(=O)[C@H](Cc1ccc(O)cc1)NC(=O)[C@H](CCC(N)=O)NC(=O)[C@H](CC(N)=O)NC(=O)[C@@H](Cc1ccccc1)NC(=O)[C@H](Cc1ccccc1)NC(=O)[C@H](C)NC(=O)[C@H](N)Cc1ccccc1)C(C)C; assay: as §1
[9] = substrate: CC(=O)NCCSC(=O)[C@H](CC(C)C)NC(=O)[C@H](CCCN)NC(=O)[C@@H](NC(=O)[C@H](Cc1ccc(O)cc1)NC(=O)[C@H](CCC(N)=O)NC(=O)[C@H](CC(N)=O)NC(=O)[C@H](CCCCN)NC(=O)[C@H](Cc1ccccc1)NC(=O)[C@@H]1CCCN1C(=O)[C@H](N)Cc1ccccc1)C(C)C; assay: as §1
[10] = substrate: CC(=O)NCCSC(=O)[C@H](CC(C)C)NC(=O)[C@H](CCCN)NC(=O)[C@@H](NC(=O)[C@H](Cc1ccc(O)cc1)NC(=O)[C@H](CCC(N)=O)NC(=O)[C@H](CC(N)=O)NC(=O)[C@@H](Cc1ccccc1)NC(=O)[C@H](Cc1ccccc1)NC(=O)[C@H](CC(=O)O)NC(=O)[C@H](N)Cc1ccccc1)C(C)C; assay: as §1
[11] = substrate: CC(=O)NCCSC(=O)[C@H](CC(C)C)NC(=O)[C@H](CCCN)NC(=O)[C@@H](NC(=O)[C@H](Cc1ccc(O)cc1)NC(=O)[C@H](CCC(N)=O)NC(=O)[C@H](CC(N)=O)NC(=O)[C@H](Cc1ccccc1)NC(=O)[C@H](Cc1ccccc1)NC(=O)[C@@H]1CCCN1C(=O)[C@H](N)Cc1ccccc1)C(C)C; assay: as §1
[12] = substrate: CC(=O)NCCSC(=O)[C@H](CC(C)C)NC(=O)[C@H](CCCN)NC(=O)[C@@H](NC(=O)[C@H](Cc1ccc(O)cc1)NC(=O)[C@H](CCC(N)=O)NC(=O)[C@H](CC(N)=O)NC(=O)[C@H](Cc1c[nH]c2ccccc12)NC(=O)[C@H](Cc1ccccc1)NC(=O)[C@@H]1CCCN1C(=O)[C@H](N)Cc1ccccc1)C(C)C; assay: as §1
[13] = substrate: CC(=O)NCCSC(=O)[C@H](CC(C)C)NC(=O)[C@H](CCCN)NC(=O)[C@@H](NC(=O)[C@H](Cc1ccc(O)cc1)NC(=O)[C@H](CCC(N)=O)NC(=O)[C@H](CC(N)=O)NC(=O)[C@H](CCC(=O)O)NC(=O)[C@H](Cc1ccccc1)NC(=O)[C@@H]1CCCN1C(=O)[C@H](N)Cc1ccccc1)C(C)C; assay: as §1
[14] = substrate: CC(=O)NCCSC(=O)[C@H](CC(C)C)NC(=O)[C@H](CCCN)NC(=O)[C@@H](NC(=O)[C@H](Cc1ccc(O)cc1)NC(=O)[C@H](CCC(N)=O)NC(=O)[C@H](CC(N)=O)NC(=O)[C@@H](NC(=O)[C@H](Cc1ccccc1)NC(=O)[C@@H]1CCCN1C(=O)[C@H](N)Cc1ccccc1)[C@@H](C)O)C(C)C; assay: as §1
[15] = substrate: CC(=O)NCCSC(=O)[C@H](CC(C)C)NC(=O)[C@H](CCCN)NC(=O)[C@@H](NC(=O)[C@H](CC(N)=O)NC(=O)[C@H](CCC(N)=O)NC(=O)[C@H](CC(N)=O)NC(=O)[C@@H](Cc1ccccc1)NC(=O)[C@H](Cc1ccccc1)NC(=O)[C@@H]1CCCN1C(=O)[C@H](N)Cc1ccccc1)C(C)C; assay: as §1

B1: Thioesterase GrsT homolog tycF (Brevibacillus brevis), O30412 (protein)
chain: MKLFCFPYAGGLPGIYYSWKSRLPPTFLEIDAFEVRPHIPQPNRDVFLPTSFYELLEDVCDRITPALTETPFAFFGHSMGGLVAFELTRKLMQKGAPLPQHLFLSASRAPHAYGKLAKTYNLPHDEFVEALRKLGGTPDDVLENQELLELFLPILRADFQAVQTYEMNPDLPRQVPVNMTVLYGTEDTIALEDIWAWRDYCQGACQFFPVSGGHFFIHHQTSPILEIIQNVLKEEKTVAIHSSF
- Km [1]: 42 µM
- Km [2]: 29 µM
- Km [3]: 82 µM
- Km [4]: 13 µM and 9.2 µM
- Km [5]: 145 µM
- Km [6]: 238 µM
- Km [7]: 19 µM
- Km [8]: 31 µM
- Km [9]: 15 µM
- Km [10]: 96 µM
- Km [11]: 4.8 µM
- Km [12]: 7.5 µM
- Km [13]: 12 µM
- Km [14]: 31 µM
- Km [15]: 7.6 µM
